Measured values as given in PMC3458543.

Biological target: T1, His-Six1-HD (Mus musculus, UniProt Q62231 110-201)
T1 sequence: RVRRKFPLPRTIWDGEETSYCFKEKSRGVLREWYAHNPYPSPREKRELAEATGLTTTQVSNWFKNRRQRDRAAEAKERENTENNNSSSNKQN
Experiment: EMSA

B1: Myog_mut34 (dsDNA)
DNA 1: GTTAGAGGGGGTATCAGGTTTGTGTGGCGTTGGC
DNA 2: GCCAACGCCACACAAACCTGATACCCCCTCTAAC
binding result: binds
